Where “and” joins values, the source holds several entries; their conditions need not be identical. Equal entries are not always repeated.
B1: Rous sarcoma virus (RSV) CA protein, wild type (natural protein)
chain: PVVIKTEGPAWTPLEPKLITRLADTVRTKGLRSPITMAEVEALMSSPLLPHDVTNLMRVILGPAPYALWMDAWGVQLQTVIAAATRDPRHPANGQGRGERTNLNRLKGLADGMVGNPQGQAALLRPGELVAITASALQAFREVARLAEPAGPWADIMQGPSESFVDFANRLIKAVEGSDLPPSARAPVIIDCFRQKSQPDIQQLIRTAPSTLTTPGEIIKYVLDRQKTAPLTDQGIA

Columns and labels:
[1] = target: HIV CA protein (p24) (human immunodeficiency virus (HIV)); assay: co-sedimentation
[2] = target: the molecule itself; assay: SEC-MALS

Molecule | critical concentration [1] [µM] | stoichiometry N [2]
HIV CA protein (p24) (natural protein) | 10 | –
B1 | – | 2 and 3 and 4
